According to US10941182 (Amgen, dated 2021):
Non-standard residues stand in square brackets, D forms with d. Primed or numbered codes have the meaning given here. No end group written: not given here. Oic = O=C(O)[C@@H]1C[C@@H]2CCCC[C@@H]2N1; Phe(4-Cl) = N[C@@H](Cc1ccc(Cl)cc1)C(=O)O; dPhe(4-Cl) = N[C@H](Cc1ccc(Cl)cc1)C(=O)O; d1Nal = N[C@H](Cc1cccc2ccccc12)C(=O)O; d2Nal = N[C@H](Cc1ccc2ccccc2c1)C(=O)O; NMeR = CN[C@@H](CCCNC(=N)N)C(=O)O; hArg = N=C(N)NCCCC[C@H](N)C(=O)O; β3hR = N=C(N)NCCC[C@H](N)CC(=O)O; Cha = N[C@@H](CC1CCCCC1)C(=O)O; Gly(N-CH2CH2OH) = O=C(O)CNCCO; αMeL = CC(C)C[C@](C)(N)C(=O)O; β3hL = CC(C)C[C@H](N)CC(=O)O; αMeP = C[C@@]1(C(=O)O)CCCN1; β3hK = NCCCC[C@H](N)CC(=O)O; β3hP = O=C(O)C[C@@H]1CCCN1; β3hS = N[C@@H](CO)CC(=O)O; Nle = CCCC[C@H](N)C(=O)O; Orn = NCCC[C@H](N)C(=O)O; Pip′ = not defined here; Nlys = NCCCCNCC(=O)O; BLeu = β-leucine; βAla = NCCC(=O)O; BLys = β-lysine

T1: human APJ receptor (human, UniProt P35414 1-380)
T1 sequence (looked up): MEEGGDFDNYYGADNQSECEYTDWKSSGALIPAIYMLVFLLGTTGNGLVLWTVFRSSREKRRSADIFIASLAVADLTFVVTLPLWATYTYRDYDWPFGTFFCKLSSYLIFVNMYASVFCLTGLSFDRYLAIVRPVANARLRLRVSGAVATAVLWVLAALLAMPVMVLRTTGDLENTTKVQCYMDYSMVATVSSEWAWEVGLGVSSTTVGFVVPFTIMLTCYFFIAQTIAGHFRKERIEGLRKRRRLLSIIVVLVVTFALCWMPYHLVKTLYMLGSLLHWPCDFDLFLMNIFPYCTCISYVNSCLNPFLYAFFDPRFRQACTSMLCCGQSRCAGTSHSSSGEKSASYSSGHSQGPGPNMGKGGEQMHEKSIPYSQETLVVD

T2: rat APJ receptor (rat, UniProt Q9JHG3 1-377)
T2 sequence (looked up): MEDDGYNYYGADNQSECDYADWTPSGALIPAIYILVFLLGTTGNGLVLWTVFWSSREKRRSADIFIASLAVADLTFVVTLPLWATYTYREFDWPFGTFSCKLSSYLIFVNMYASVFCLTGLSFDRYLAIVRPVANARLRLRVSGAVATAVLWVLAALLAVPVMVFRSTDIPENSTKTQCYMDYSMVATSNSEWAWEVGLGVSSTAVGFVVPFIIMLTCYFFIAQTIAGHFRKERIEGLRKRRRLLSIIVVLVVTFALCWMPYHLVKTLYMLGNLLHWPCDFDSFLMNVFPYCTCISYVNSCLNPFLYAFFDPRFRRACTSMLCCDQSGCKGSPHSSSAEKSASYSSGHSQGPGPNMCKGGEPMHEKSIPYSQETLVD


Assays:
human APJ receptor = target: T1, human APJ receptor; assay: cell-based or functional assay
rat APJ receptor = target: T2, rat APJ receptor; assay: cell-based or functional assay

Row | EC50 Human APJ Receptor (human APJ receptor) | EC50 Rat APJ Receptor (rat APJ receptor) | Binder
1 | 116 pM | 301 pM | Ac-[Orn]F[hArg][hArg][BLeu][hArg]P[hArg][Cha]SHKG[Oic][Nle]P[Phe(4-Cl)]-OH [apelin polypeptide SEQ ID NO: 29]
2 | 250 pM | 1510 pM | Ac-[Orn]F[hArg][hArg]Q[hArg]P[hArg][Cha]SH[Nlys]G[Oic][Nle]P[Phe(4-Cl)]-OH [apelin polypeptide SEQ ID NO: 32]
3 | 3480 pM | 11100 pM | [Orn]F[hArg][hArg]Q[hArg]P[hArg][Cha]SHKG[βAla][Nle]P[Phe(4-Cl)] [apelin polypeptide SEQ ID NO: 705]
4 | 1740 pM | 53700 pM | Ac-[hArg]Q[dR]P[NMeR][Cha]SHKG[Oic][Nle][d1Nal]-OH (SMILES CCCC[C@H](NC(=O)[C@@H]1C[C@@H]2CCCC[C@@H]2N1C(=O)CNC(=O)[C@H](CCCCN)NC(=O)[C@H](Cc1c[nH]cn1)NC(=O)[C@H](CO)NC(=O)[C@H](CC1CCCCC1)NC(=O)[C@H](CCCNC(=N)N)N(C)C(=O)[C@@H]1CCCN1C(=O)[C@@H](CCCNC(=N)N)NC(=O)[C@H](CCC(N)=O)NC(=O)[C@H](CCCCNC(=N)N)NC(C)=O)C(=O)N[C@H](Cc1cccc2ccccc12)C(=O)O) [apelin polypeptide SEQ ID NO: 25]
5 | 330 pM | 1490 pM | [Orn]F[hArg][hArg]Q[hArg]P[hArg][Cha]SH[BLys]G[Oic][Nle]P[Phe(4-Cl)] [apelin polypeptide SEQ ID NO: 702]
6 | 949 pM | 3110 pM | [Orn]F[hArg][hArg]Q[hArg]P[hArg][Cha]S[βAla]KG[Oic][Nle]P[Phe(4-Cl)] [apelin polypeptide SEQ ID NO: 700]
7 | 458 pM | 602 pM | [Orn]F[hArg][hArg]Q[hArg][β3hP][hArg][Cha]SHKG[Oic][Nle]P[Phe(4-Cl)] [apelin polypeptide SEQ ID NO: 694]
8 | 539 pM | 734 pM | [Orn]F[hArg][hArg]Q[hArg]P[hArg][Cha][β3hS]HKG[Oic][Nle]P[Phe(4-Cl)] [apelin polypeptide SEQ ID NO: 698]
9 | 166 pM | 456 pM | Ac-[Orn]F[hArg][hArg]Q[hArg]P[hArg][BLeu]SHKG[Oic][Nle]P[Phe(4-Cl)]-OH [apelin polypeptide SEQ ID NO: 30]
10 | 168 pM | 271 pM | [Orn]F[hArg][hArg]Q[hArg]P[hArg][Cha]SHKG[Oic][Nle]P[Phe(4-Cl)] [apelin polypeptide SEQ ID NO: 714]
11 | 116 pM | 703 pM | Ac-[Orn]F[hArg][hArg]Q[hArg]P[hArg][Cha][Gly(N-CH2CH2OH)]HKG[Oic][Nle]P[Phe(4-Cl)]-OH (SMILES CCCC[C@H](NC(=O)[C@@H]1C[C@@H]2CCCC[C@@H]2N1C(=O)CNC(=O)[C@H](CCCCN)NC(=O)[C@H](Cc1c[nH]cn1)NC(=O)CN(CCO)C(=O)[C@H](CC1CCCCC1)NC(=O)[C@H](CCCCNC(=N)N)NC(=O)[C@@H]1CCCN1C(=O)[C@H](CCCCNC(=N)N)NC(=O)[C@H](CCC(N)=O)NC(=O)[C@H](CCCCNC(=N)N)NC(=O)[C@H](CCCCNC(=N)N)NC(=O)[C@H](Cc1ccccc1)NC(=O)[C@H](CCCN)NC(C)=O)C(=O)N1CCC[C@H]1C(=O)N[C@@H](Cc1ccc(Cl)cc1)C(=O)O) [apelin polypeptide SEQ ID NO: 31]
12 | 229 pM | 351 pM | [Orn]F[hArg][hArg]Q[hArg]P[hArg][Cha]SHKG[Oic][Nle][Pip′][Phe(4-Cl)] [apelin polypeptide SEQ ID NO: 711]
13 | 963 pM | 2860 pM | [Orn]F[hArg][hArg]Q[hArg]P[hArg][Cha]SHK[βAla][Oic][Nle]P[Phe(4-Cl)] [apelin polypeptide SEQ ID NO: 704]
14 | 7870 pM | 134000 pM | Ac-[hArg]Q[dR]P[NMeR][Cha]SHKG[Oic][Nle]P[dPhe(4-Cl)]-OH [apelin polypeptide SEQ ID NO: 24]
15 | 294 pM | 471 pM | [Orn]F[hArg][hArg]Q[hArg]P[hArg][Cha]SHKG[Pip′][Nle]P[Phe(4-Cl)] [apelin polypeptide SEQ ID NO: 707]
16 | 1260 pM | 2670 pM | [Orn]F[hArg][hArg]Q[hArg]P[hArg][Cha]SH[βAla]G[Oic][Nle]P[Phe(4-Cl)] [apelin polypeptide SEQ ID NO: 703]

The remaining lines, values behind:

Row | Binder | EC50 Human APJ Receptor (human APJ receptor) | EC50 Rat APJ Receptor (rat APJ receptor)
17 | [Orn]F[hArg][hArg]Q[hArg]P[hArg][Cha]SHKG[Oic][Nle][d2Nal] [apelin polypeptide SEQ ID NO: 713] | 1540 pM | 1140 pM
18 | [Orn]F[hArg][hArg]Q[hArg]P[hArg][β3hL]SHKG[Oic][Nle]P[Phe(4-Cl)] [apelin polypeptide SEQ ID NO: 697] | 225 pM | 495 pM
19 | [Orn]F[hArg][hArg]Q[β3hR]P[hArg][Cha]SHKG[Oic][Nle]P[Phe(4-Cl)] [apelin polypeptide SEQ ID NO: 693] | 229 pM | 505 pM
20 | Ac-[Orn]F[hArg][hArg]Q[hArg][αMeP][hArg][Cha]SHKG[Oic][Nle]P[Phe(4-Cl)]-OH [apelin polypeptide SEQ ID NO: 33] | 98.5 pM | 318 pM
21 | [Orn]F[hArg][hArg]Q[hArg]P[β3hR][Cha]SHKG[Oic][Nle]P[Phe(4-Cl)] [apelin polypeptide SEQ ID NO: 696] | 261 pM | 300 pM
22 | [Orn]F[hArg][hArg]Q[hArg]P[hArg][Cha]SH[β3hK]G[Oic][Nle]P[Phe(4-Cl)] [apelin polypeptide SEQ ID NO: 701] | 316 pM | 879 pM
23 | Ac-[Orn]F[hArg][hArg]Q[hArg]P[hArg][αMeL]SHKG[Oic][Nle]P[Phe(4-Cl)]-OH (SMILES CCCC[C@H](NC(=O)[C@@H]1C[C@@H]2CCCC[C@@H]2N1C(=O)CNC(=O)[C@H](CCCCN)NC(=O)[C@H](Cc1c[nH]cn1)NC(=O)[C@H](CO)NC(=O)[C@](C)(CC(C)C)NC(=O)[C@H](CCCCNC(=N)N)NC(=O)[C@@H]1CCCN1C(=O)[C@H](CCCCNC(=N)N)NC(=O)[C@H](CCC(N)=O)NC(=O)[C@H](CCCCNC(=N)N)NC(=O)[C@H](CCCCNC(=N)N)NC(=O)[C@H](Cc1ccccc1)NC(=O)[C@H](CCCN)NC(C)=O)C(=O)N1CCC[C@H]1C(=O)N[C@@H](Cc1ccc(Cl)cc1)C(=O)O) [apelin polypeptide SEQ ID NO: 34] | 51.9 pM | 193 pM
24 | [Orn]F[hArg][hArg]Q[hArg]P[hArg][Cha]SHKG[β3hP][Nle]P[Phe(4-Cl)] [apelin polypeptide SEQ ID NO: 706] | 1990 pM | 4390 pM
25 | [Orn]F[hArg][hArg]Q[hArg]P[hArg][Cha][βAla]HKG[Oic][Nle]P[Phe(4-Cl)] [apelin polypeptide SEQ ID NO: 699] | 440 pM | 603 pM
26 | [Orn]F[hArg][hArg]Q[hArg]P[hArg][Cha]SHKG[Oic][Nle][βAla][Phe(4-Cl)] [apelin polypeptide SEQ ID NO: 710] | 785 pM | 1790 pM
27 | [Orn]F[hArg][hArg]Q[hArg]P[hArg][Cha]SHKG[Oic][Nle][d1Nal] [apelin polypeptide SEQ ID NO: 712] | 654 pM | 821 pM
28 | [Orn]F[hArg][hArg]Q[hArg][Pip′][hArg][Cha]SHKG[Oic][Nle]P[Phe(4-Cl)] [apelin polypeptide SEQ ID NO: 695] | 313 pM | 384 pM
29 | [Orn]F[hArg][hArg]Q[hArg]P[hArg][Cha]SHKG[Oic][Nle][β3hP][Phe(4-Cl)] [apelin polypeptide SEQ ID NO: 709] | 555 pM | 862 pM
